# According to patent US8247194 (Amgen, dated 2012):
# Residue numbers refer to the chain shown, from its start.
# B1: half-human SCA B33oN-35 (scFv)
# scFv: ELQLVEQSGAALVKPGDSVKMSCKASGYPFTDYIVHWVKQSHGKSLDWIGYINPYSGDTKFNEKFKSKATLTVDKSSSTAYMEFSRLTSEDSAIYYCARSGLIAVYFDYWGQGTTVTVSSGGGGSGGGGSGGGGSELQMTQSPSSLSASVGDRVTITCRASQSIGSSLHWYQQKPDQSPKLLIKFASQSFSGVPSRFGGSGSGTNFTLTINSLEAEDAATYYCQQSSTLPPTFGQGTKLEIKTGDYKDDDDKHHHHHH
# notes: Expressed from pComb3H5BFlag/His
# B2: half-human SCA C32oN-89 (scFv)
# scFv: ELQLVEQSGAALVKPGDSVKMSCKASGYPFTDYIVHWVKQSHGKSLDWIGYINPYSGDTKFNEKFKSKATLTVDKSSSTAYMEFSRLTSEDSAIYYCARSGLIAVYFDYWGQGTTVTVSSGGGGSGGGGSGGGGSELVLTQSPSSLSASVGDRVTITCRASQSISRYLNWYQQKPGKPPKLLIFVASNLQTGVPSRFSGSGSGTDFTLTISSLEPEDFAVYYCQQRSNWPLTFGGGTKVDIKTGDYKDDDDKHHHHHH
# notes: as for B1
# B3: half-human SCA B32oN-33 (scFv)
# scFv: ELQLVEQSGAALVKPGDSVKMSCKASGYPFTDYIVHWVKQSHGKSLDWIGYINPYSGDTKFNEKFKSKATLTVDKSSSTAYMEFSRLTSEDSAIYYCARSGLIAVYFDYWGQGTTVTVSSGGGGSGGGGSGGGGSELVMTQSPATLSLSPGERATLSCRASQSVRTYLAWYQQKPGQAPRLLIYAASHRATGIPARFSGSGSGTDFTLTISRLEPEDFAVYYCQQYGSSPPTFGQGTKVEIKTGDYKDDDDKHHHHHH
# notes: as for B1
# B4: half-human SCA B32oN-67 (scFv)
# scFv: ELQLVEQSGAALVKPGDSVKMSCKASGYPFTDYIVHWVKQSHGKSLDWIGYINPYSGDTKFNEKFKSKATLTVDKSSSTAYMEFSRLTSEDSAIYYCARSGLIAVYFDYWGQGTTVTVSSGGGGSGGGGSGGGGSELVLTQSPGFQSVTPKEKVTITCRASQSIGSSLHWYQQKPDQSPKLLIKFASQSISGVPSRFTGSGSGTDFTLTISSLQPEDIATYYCQQSYSTPWTFGQGTKLEIKTGDYKDDDDKHHHHHH
# notes: as for B1
# B5: half-human SCA B32oN-73 (scFv)
# scFv: B4 scFv with T198S, S200T
# notes: as for B1
# B6: half-human SCA C32oN-92 (scFv)
# scFv: ELQLVEQSGAALVKPGDSVKMSCKASGYPFTDYIVHWVKQSHGKSLDWIGYINPYSGDTKFNEKFKSKATLTVDKSSSTAYMEFSRLTSEDSAIYYCARSGLIAVYFDYWGQGTTVTVSSGGGGSGGGGSGGGGSELVLTQSPDFQSVTPKEKVTITCRASQSIGSSLHWYQQKPDQSPKLLIKFASQSLSGVPSRFSGSGSGTDFALTINSLEAEDAATYYCQQSSTLPPTFGQGTKLEIKTGDYKDDDDKHHHHHH
# notes: as for B1
# B7: half-human SCA B32oN-48 (scFv)
# scFv: B6 scFv with D144G, S178P, L190I, D205N, A207T, L239V
# notes: as for B1
# Target: T1, recombinant human GM-CSF (rhGM-CSF), produced in E. coli (human, UniProt P04141 18-144)
# T1 construct: The ELISA of 2.5.2 and the TF-1 proliferation assays say only rhGM-CSF without naming the preparation; they are assigned to this molecule; also called human GM-CSF antigen; recombinant human granulocyte macrophage colony stimulating factor
# Assay: SPR off-rate ranking, purified periplasmic preparation over immobilized rhGM-CSF; clone listed among the sequenced hits in the 2nd table
# Experimental: FIG. 9: Binding analysis (kinetic off rate) of SCA hits derived from the method of the invention, as determined by SPR. Binding kinetics of the SCA hits were measured injecting 10 µL of purified periplasmic preparation ("PPP") protein solution with a flow rate of 5 µL/min at 25° C. onto the sensor chip. The data were monitored in all four flow cells. Background association with the unmodified CM5 chip surface (FC1) was substracted from the binding to the immobilised rhGM-CSF (FC2) allowing analysis of the specific binding signal (FC2-FC1 response difference). The dissociation rate was monitored for 100 sec (FIG. 4). The amplitude of the binding peak (RUmax) directly correlates to the protein concentration in the injected sample. The kinetic association rate constant (ka) is concentration dependent and can—due to varying concentrations of the PPP protein solution—not be used for the qualitative ranking of the purified PPP SCA material. The kinetic dissociation rate constant (kd) is protein concentration independent and characteristic for the binding strength of the respective SCA hit. The SCA hits with the best apparent off rate were identified.
# T1 sequence (P04141 18-144 limits assumed): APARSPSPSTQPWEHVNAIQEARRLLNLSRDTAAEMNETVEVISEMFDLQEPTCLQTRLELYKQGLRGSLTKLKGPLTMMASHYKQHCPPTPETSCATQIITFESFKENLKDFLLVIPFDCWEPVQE
row,binding result,Binder
1,binds,B1
2,binds,B2
3,binds,B3
4,binds,B4
5,binds,B5
6,binds,B6
7,binds,B7
